assay: soluble on expression in E. coli; label from the status in PepcDB or PDB records

Row | Sequence | soluble on expression in E. coli
1 | STEDSVKAVKRAADDDPHTETEHEDKKLKTDQEERKYPKKKVALLMAYSGKGYYGMQRNARNSQFKTIEDELVTALVGARCIPEGHAEEMKKMSFQRSARTDKGVSAVGRVVSLKVWMIENILEKINAHLPPRIRVLGCKRVTGGFNSKNNCYARTYSYMLPTVAFSPKDYNQEDTSFRLTSDTLQTVNRLFCLYKGTHNFHNFTSQKGHRDPSAMRYITHMSCGEPFIRKDVEFAVITVRGQSFMMHQIRKMIGLVIAVVKGYVDEGVMEKSWGEEKVGVSKAPGLGLVLERVHFDGYNKRFGGDGIHETLEWTEQEEAIADFKEKHIYPTIVDTELNERSMVNWMTSLCIHDFEETATGNQDRKDDDEDGSASD | soluble
2 | MGSDKIHHHHHHMKKYYIYILTAVLPILWGACNNGDDIDTKHSIFSTEPMEHNGFDEWLLANYTYPYNVDFKYRMQDIESDHKYNLVPADYDKSVALAKIIKHVWMEAYTELAGPAFLRSYVPKTFHLIGSPAYDSSGTKVLGTAEGGKKITLYEVNSLDFENVDIEVLNEYYFKTMHHEFAHILHQKRNYDPSFDRITEGKYVGSDWYFYVAENGNSYLREDADAWPEGFVTAYAMSEAREDFVENIAMYVTHDQAYWDNMLKVAGTAGAAIINQKFTIVYNYMLETWGINLDDLREIVLRRQQEIPELDLSTIE | not soluble
3 | MSFDADEEILQDFLVEAGEILEQLSEQLVELESRPDDMDLLNAIFRGFHTVKGGAGFLQLNALVECCHIAENVFDILRKGERRVSSELMDVVLQALDTVNAMFDQVREQSEPTPATPELLAALARLAEPEGAEPAEPVQAPPAAVPPAEPAAPPEAPAQSASSDITDDEFEQLLDALQGDEAPASAVAEAPAAPAGDEISDAEFEALLDQLHGKGKFVPPAVSAEPAQVPAEAVEPAAAAAGDDISDDEFEALLDELHGKGKFGDVPEAAGTPAAPAAAAPAAAPAEQGKAPAAAGGDEISDDEFESLLDELHGKGKFNGASEAVAAAAAVAKNIAAKSPAAKPVAPAKAAAARPAAPDRPAASEAETTVRVDTARLDEIMNMVGELVLVRNRLVRLGLNSGDEAMAKAVANLDVVTGDLQMSVMKTRMQPIKKVFGRFPRLVRDLARNMKKEINLELVGEETDLDKNLVEALADPLVHLVRNAVDHGIESPEEREAAGKPRVGQVVLSAEQEGDHILLMITDDGKGMDAEVLRNKAVEKGLLERDAADRLTDLECYNLIFAPGFSTKTEISDVSGRGVGMDVVKTKISQLNGTVNVFSQKGSGSKIVIKVPLTLAIMPTLMVMLGSQAFAFPLVNVNEIFHLDLSRTNVVDGQEVVIVRDKALPLFYLKRWLVPSAAHEEQGEGHVVILSVGTQRIGFVVDQLVGQEEVVIKPLGKMLQGTPGMAGATITGDGRIALILDVPSMLKRYARRI | not soluble
4 | MIIDIHGHYTTAPKALEDWRNRQIAGIKDPSVMPKVSELKISDDELQASIIENQLKKMQERGSDLTVFSPRASFMAHHIGDFNVSSTWAAICNELCYRVSQLFPDNFIGAAMLPQSPGVDPKTCIPELEKCVKEYGFVAINLNPDPSGGHWTSPPLTDRIWYPIYEKMVELEIPAMIHVSTSCNTCFHTTGAHYLNADTTAFMQCVAGDLFKDFPELKFVIPHGGGAVPYHWGRFRGLAQEMKKPLLEDHVLNNIFFDTCVYHQPGIDLLNTVIPVDNVLFASEMIGAVRGIDPRTGFYYDDTKRYIEASTILTPEEKQQIYEGNARRVYPRLDAALKAKGKAAALEHHHHHH | not soluble
5 | MQEKTMKQMQQEVDDYISQFKEGYFSPLAMLARLTEELGELAREVNHYYGEKSKKATEQEKTVEEELGDLLFVLICFANSLGIDLQAAHDRVMDKFRTRDRDRWTRKEEGS | not soluble
6 | MPFHIGSGCLPAIISNRRIYRIAWSDTPPEMSSWEKMKEFFCSTHQAEALECIWTICHPPAGTTREDVVSRFELLRTLAYDGWEENIHSGLHGENYFCILDEDSQEILSVTLDDVGNYTVNCQGYSETHHLTMATEPGVERTDITYNLTSDIDAAAYLEELKQNPIINNKIMNPVGQCESLMTPVSNFMNEKGFDNIRYRGIFIWDKPTEEIPTNHFAVVGNKEGKDYVFDVSAHQFENRGMSNLNGPLILSADEWVCKYRMATRRKLIYYTDFSNSSIAANAYDALPRELESESMAGKVFVTSPRWFNTFKKQKYSLIGKM | not soluble
7 | MVKFMAIGTPLLKGSIKFLLLGSGELGKEVVIEAQRLGIECIAVDRYQNAPAMQVAHKSYVIDMKDYDALMAIIEREEPDYIVPEIEAINTDALIDAEKMGYTVIPTAEATKITMNRELIRRLAAEKLGLKTAKYEFADSLEELRDAVEKLGLPCVVKPIMSSSGKGQSVVRSEEDIEKAWKIAKEGARGIGNRVIVEEFINFDYEITLLTARTAEGTKFCEPIGHVQIDGDYHESWQPHNMSAELKEQAQDIAKKVTDALGGYGIFGVELFVKGDEVIFSEVSPRPHDTGMVTMITQEMSEFEIHVRAILGLPVSTKLIHPGASHVIKAEINKYAPKYHIEDALKVPNTKLRLFGKPNAKVGRRMGVALAYADSVEKARELAEKCAHAVRIE | soluble
8 | MSLRTSYKIYCTYKNIHAWYDAIKCGIDAAVKELAEKGVTVDYEWYGPAQPDAVDQVNSIETAIGQGWDLIAVDVNQPELTGEAINNAVAKGIPVAVFGTSDVPNCDRAFFVGNTDPYGDGCALAKAVCEKMGGKGQIAILAGTIGALAHEERLRGFKDTIAKYPDIEIVDEQRDNDEVEKAISITESWLQAYPNLGGILCNNMSNPVGACQAVADAGKSGKIVIGGMDHDLRALNALKDGTLYVAQVQNCYDMGYKLIYNAIKTIDGEKVEESTAVGSTSVYAQDADKFINMLYGEANEGHHHHHH | soluble
9 | MAHHHHHHMESPEADEAFSKSLDAKVDDLFARIPLPQDPMKVALALTDEEAREEAATELVKEAVREMYWRKLGAKQAEELRLKKAQEKLQKQGAIQYFEERREEERLREHENTQFAAQPLAVEPQSPVGKGVTASPLQNLDSTLSAEELRKELAAMKANVSRLEELLRYKT | soluble
10 | LYKKAGLMVDKKLVVVFGGTGAQGGSVARTLLEDGTFKVRVVTRNPRKKAAKELRLQGAEVVQGDQDDQVIMELALNGAYATFIVTNYWESCSQEQEVKQGKLLADLARRLGLHYVVYSGLENIKKLTAGRLAAAHFDGKGEVEEYFRDIGVPMTSVRLPCYFENLLSHFLPQKAPDGKSYLLSLPTGDVPMDGMSVSDLGPVVLSLLKMPEKYVGQNIGLSTCRHTAEEYAALLTKHTRKVVHDAKMTPEDYEKLGFPGARDLANMFRFYALRPDRDIELTLRLNPKALTLDQWLEQHKGDFNLL | soluble
11 | EDLGYFCVDNLPPSLLPKFLELMKESNSKMSKVALVMDLRGREFFDRLIEALDEMAENPWITPRILFLDAKDSILVTRYKETRRSHPLAATGLPLEGIALERELLEELKGRSQIIYDTSDMKPRDLREKIVKHFATNQGETFTVNVMSFGFKYGIPIDADLVFDVRFLPNPYYIESMRPLTGKDKEVSSYVMKWNETQKFNEKLIDLLSFMLPSYKREGKSQVVIAIGCTGGQHRSVTLAENLADYFKKDYYTHVTHRDIEKR | not soluble
12 | HHHHHHDITFRNIRFRYKPDSPVILDNINLSIKQGEVIGIVGRSGSGKSTLTKLIQRFYIPENGQVLIDGHDLALADPNWLRRQVGVVLQDNVLLNRSIIDNISLANPGMSVEKVIYAAKLAGAHDFISELREGYNTIVGEQGAGLSGGQRQRIAIARALVNNPKILIFDEATSALDYESEHVIMRNMHKICKGRTVIIIAHRLSTVKNADRIIVMEKGKIVEQGKHKELLSEPESLYSYLYQLQSD | soluble
13 | MTSYKPEYLIPNLLDLVAEGEGLRIEFKRLIHSAPKIARSITAFANTSGGVILIGVDDDRRIVGIQSEKEALQVIDEAMRFHIEPKPRIEVHFEEFKRRMVLLVDIPKSPERPHFHIEPLIRRDTGKHGVERRVFIRDGSHNKAASDDRIELMLSSREPLKVAFTGRERCLLDWLNEHDRITAEEFADSAGIPMKEARRILVSLVRAGALRLDTANGDNSYTLAHRLEHHHHHH | soluble
14 | MSLRSGVEMAQRFARYPGAVANAARLGAACAFDVRLIAPRLPDFPVPPGHTEMSYLRELAMRGAAEKYGPPHQRPDVYRQLDYELDVIEQLGFPGYFLVVWEIVEFCRSRGILCQGRGSAANSVVCYVLGITKADPIAFRLLFERFLSPERDGPPDIDVDIESGRREEVIQYVYSRYGRERAAQVATVITYRPRSAVRDMARALGYSPGQQDAWSKQLDRYGEIPRGSEADHDVPDDVVHLARQVLGFPRHLGIHSGGMVICDRPVAEVCPVEWARMPGRSVLQWDKDDCARIGVVKFDLLGLGMLSALRECFDLIETYHGVRLSLETIPPEDPAVYDMLCAADSVGVFQVESRAQMATLPRLQPRNFYDLVTEVAIIRPGPIQGGSVHPFIRRRRGREPVRYAHPLLRHSLERTYGVPLFQEQIMQMAIDVAGLTPAEADHLRQAMGAKREGHHHHHH | soluble
15 | MIIGLLNQKGGVGKTTLSVNLAASFARTGARVLLIDVDPQGSALDWAAAREGAPLFPVVGLPRATVHKEITQIGHNYDHIIIDGPPRVTDLARSALMASDFVLIPVQPSPYDIWAADGIVKLIDEARVYKENLKSAFVINRKIVNTAIGRDVGEALGVYPVHVLSANVAQRVIFAEAATQGKTVYEVDKQGLAAAEIEAVAAEIKELAQLEHHHHHH | not soluble
16 | MSLSAHEIRELFLSFFEKKGHTRVKSAPLVPENDPTLLFVNAGMVPFKNVFLGLEKRPYKRATSCQKCLRVSGKHNDLEQVGYTSRHHTFFEMLGNFSFGDYFKKEAIEYAWEFVTEVLKLPKEKLYVSVYKDDEEAYRIWNEHIGIPSERIWRLGEEDNFWQMGDVGPCGPSSEIYVDRGEEYEGDERYLEIWNLVFMQYNRDENGVLTPLPHPNIDTGMGLERIASVLQGKNSNFEIDIIFPLIQFGEEVSGKKYGEKFETDVALRVIADHLRAITFAISDGVIPSNEGRGYVIRRILRRAMRFGYKLGIENPFLYKGVDLVVDIMKEPYPELELSREFVKGIVKGEEKRFIKTLKAGMEYIQEVIQKALEEGRKTLSGKEVFTAYDTYGFPVDLIDEIAREKGLGIDLEGFQCELEEQRERARKHFKVEAKKVKPVYSHLKELGKTSAFVGAAALEHHHHHH | soluble
17 | IPKNTGGVLNSSVLDDAFSFITSYFDIEYGGLGFGAKFPHPFVDLLFLNYSATRGDDLGKKLGLFTLRKMYYGGIFDQVGGGFHRYTVDREWKLPHFEKLLIDNAELIYDYFTYYIATNDIEILDALRNSVDFVLRELYIDGKGFANSLDADSEGMEGKYYTWTEDELKDSLGNDY | not soluble
18 | MMSSQAWTDVENDLIVADYFAMLAEDVAGHPYNKAEHRRQLLPRLNDRSDGSVEFKHQNISAVLKGLGEVWITGYKPAFNFQTSLVDAVARWLVINPGWTHRTLSSRPVDGMAEAAQLWVGPAPTLTNQPSPDELEQMLHIAKKFDVAARDGRNRALGKAGEERVLKHERNTLTAAGREDLAQQIRWVSEEEGDGAGYDIASFDADGRQRLIEVKTTNGWERTPFHISRNELAVADERREEWCLFRLWNFARTPKAFELRPPLDAYVSLTATSFQASIHLEHHHHHH | not soluble
19 | MALSLYEKMLHKGMIIKNSNVYEKIKEIDTIIFDKTGTLTYGTPIVTQFIGDSLSLAYAASVEALSSHPIAKAIVKYAKEQGVKILEVKDFKEISGIGVRGKISDKIIEVKKAENNNDIAVYINGEPIASFNISDVPRPNLKDYLEKLKNEGLKIIILSGDKEDKVKELSKELNIQEYYSNLSPEDKVRIIEKLKQNGNKVLMIGDGVNDAAALALADVSVAMGNGVDISKNVADIILVSNDIGTLLGLIKNRKRLSNAIPSN | soluble
20 | MLEDLRLYQLISPSLPVGSFTYSQGLEWAIEKGWVTNVTELKHWLSNQLMDSLATLELPVLAKLTQLLQQEEWQQAQDWCDFIIANRETKELRLEERQRGLAFSMLLPKLGIELNQTTLPMVKQTQVAAFALAANHWNLTPTKLAAAYAWGWLENAVIVGIKLVPLGQSAGQQLLLEMADVIPQAVEKSQHWPEHLIGSFTPAQVLASSRHESQYTRLFRSLEHHHHHH | soluble

From the DeepSol protein solubility set
